{
  "source": "the RNAGym collection of RNA variant scans (doi:10.7554/elife.90254)",
  "parents": {"B1": {"name": "OR4K15 (parent)", "chain": "GUUAACGGUCAUAGGCCAUGGAAACUAGGAGCACCAUUUCGCUGCCAGUGAAGAAAUGAACAAAGAAAAUCUGGGCCAGGCAGGCAUCAAAAGAAAUAGUCUUGCGCUCAACCAGAAAGUCUGUAAUCAUUUUAAGGGUA"}},
  "data": [
    {"variants_of": "B1", "assay": "self-cleavage, relative activity (ratio to wild type); higher = more cleavage; in vitro, sequencing; the parent is a self-cleaving ribozyme", "values": [
      {"variant": "U38C U124C", "self-cleavage": 1.21},
      {"variant": "U39C A82G", "self-cleavage": 0.67},
      {"variant": "U39A U108C", "self-cleavage": 0.02},
      {"variant": "U39A A69U", "self-cleavage": 0.83},
      {"variant": "U39A A69G", "self-cleavage": 1.5},
      {"variant": "U38C G93A", "self-cleavage": 2.41},
      {"variant": "U38C G93U", "self-cleavage": 2.26},
      {"variant": "U38G A59G", "self-cleavage": 0.9},
      {"variant": "U39C A129G", "self-cleavage": 1.7},
      {"variant": "U39C A129U", "self-cleavage": 1.16},
      {"variant": "U39C A110U", "self-cleavage": 1.06},
      {"variant": "U39C A60U", "self-cleavage": 1.88},
      {"variant": "U39C A60C", "self-cleavage": 2.05},
      {"variant": "U39A A125G", "self-cleavage": 1.01},
      {"variant": "U38C A95G", "self-cleavage": 1.58},
      {"variant": "U39C A114U", "self-cleavage": 0.1},
      {"variant": "U38G A114G", "self-cleavage": 0.79},
      {"variant": "U39A A96U", "self-cleavage": 1.71},
      {"variant": "U38C C77U", "self-cleavage": 2.04},
      {"variant": "U39C A117G", "self-cleavage": 1.95},
      {"variant": "U39C A117U", "self-cleavage": 1.08},
      {"variant": "U38C U39A", "self-cleavage": 0.89},
      {"variant": "U38C U70A", "self-cleavage": 0.58},
      {"variant": "U39A U49A", "self-cleavage": 1.4},
      {"variant": "U39A A91G", "self-cleavage": 1.56},
      {"variant": "U39A A55G", "self-cleavage": 1.53},
      {"variant": "U39A G137A", "self-cleavage": 1.8},
      {"variant": "U38C U131C", "self-cleavage": 1.33},
      {"variant": "U39A U72G", "self-cleavage": 0.3},
      {"variant": "U39A A116G", "self-cleavage": 1.2},
      {"variant": "U38C U97C", "self-cleavage": 1.57},
      {"variant": "U39A A129C", "self-cleavage": 1.24},
      {"variant": "U39A U132C", "self-cleavage": 1.97},
      {"variant": "U39A U100C", "self-cleavage": 2.25},
      {"variant": "U39A U100A", "self-cleavage": 0.55},
      {"variant": "U39C A51U", "self-cleavage": 2.29},
      {"variant": "U39C A135U", "self-cleavage": 1.73},
      {"variant": "U39C A135G", "self-cleavage": 1.82},
      {"variant": "U39C A69G", "self-cleavage": 1.37},
      {"variant": "U39A U120A", "self-cleavage": 1.92},
      {"variant": "U39A U120C", "self-cleavage": 0.95},
      {"variant": "U38G C113U", "self-cleavage": 0.07},
      {"variant": "U38C C40A", "self-cleavage": 1.48},
      {"variant": "U38C A96U", "self-cleavage": 1.66},
      {"variant": "U39C A116U", "self-cleavage": 0.23},
      {"variant": "U39C A66G", "self-cleavage": 0.08},
      {"variant": "U39C C71A", "self-cleavage": 0.38},
      {"variant": "U38C U57G", "self-cleavage": 1.4},
      {"variant": "U39C A55U", "self-cleavage": 2.15},
      {"variant": "U39A C85G", "self-cleavage": 1.07},
      {"variant": "U38C U133A", "self-cleavage": 1.64},
      {"variant": "U39C A54G", "self-cleavage": 0.69},
      {"variant": "U38G A86U", "self-cleavage": 1.6},
      {"variant": "U38C C112U", "self-cleavage": 0.02},
      {"variant": "U38C C112A", "self-cleavage": 0},
      {"variant": "U39A U87C", "self-cleavage": 1.53},
      {"variant": "U38C U102A", "self-cleavage": 1.44},
      {"variant": "U38C U102C", "self-cleavage": 1.91},
      {"variant": "U38C A98G", "self-cleavage": 0.96},
      {"variant": "U38C A98U", "self-cleavage": 1.89},
      {"variant": "U38C A94U", "self-cleavage": 2.15},
      {"variant": "U38C A94G", "self-cleavage": 0.74},
      {"variant": "U38C A111G", "self-cleavage": 0.02},
      {"variant": "U39A A98G", "self-cleavage": 1.11},
      {"variant": "U38C U49A", "self-cleavage": 1.45},
      {"variant": "U38C U49C", "self-cleavage": 1.21},
      {"variant": "U39C A56G", "self-cleavage": 0.89},
      {"variant": "U39C A56C", "self-cleavage": 0.43},
      {"variant": "U38C U127C", "self-cleavage": 0.66},
      {"variant": "U38C U127G", "self-cleavage": 1.17},
      {"variant": "U38C A118G", "self-cleavage": 1.14},
      {"variant": "U38G A91G", "self-cleavage": 0.38},
      {"variant": "U39A A134U", "self-cleavage": 2.44},
      {"variant": "U39A A68C", "self-cleavage": 1.75},
      {"variant": "U39A A59G", "self-cleavage": 1.6},
      {"variant": "U39C A86U", "self-cleavage": 2.13},
      {"variant": "U39C A86G", "self-cleavage": 1.19},
      {"variant": "U38C C109A", "self-cleavage": 0.51},
      {"variant": "U38G A118G", "self-cleavage": 0.95},
      {"variant": "U38C C61A", "self-cleavage": 0.99},
      {"variant": "U38C U43C", "self-cleavage": 1.59},
      {"variant": "U38C C88A", "self-cleavage": 1.74},
      {"variant": "U39A A92G", "self-cleavage": 0.92},
      {"variant": "U38C U103G", "self-cleavage": 0.03},
      {"variant": "U38C G74A", "self-cleavage": 0.33},
      {"variant": "U39A U133C", "self-cleavage": 1.76},
      {"variant": "U39C A68U", "self-cleavage": 2.09},
      {"variant": "U39C A62G", "self-cleavage": 0.75},
      {"variant": "U39C A62U", "self-cleavage": 1.95},
      {"variant": "U39A A94C", "self-cleavage": 1.87},
      {"variant": "U39A A94G", "self-cleavage": 1.47},
      {"variant": "U39C A125G", "self-cleavage": 0.66},
      {"variant": "U38C C105A", "self-cleavage": 0.05},
      {"variant": "U39A U131C", "self-cleavage": 1.59},
      {"variant": "U39C A94C", "self-cleavage": 1.43},
      {"variant": "U39C A94G", "self-cleavage": 1.34},
      {"variant": "U39A A86C", "self-cleavage": 1.21},
      {"variant": "U39C A90G", "self-cleavage": 0.84},
      {"variant": "U39A A67G", "self-cleavage": 1.5},
      {"variant": "U39A A67U", "self-cleavage": 2.37},
      {"variant": "U38C U120A", "self-cleavage": 1.76},
      {"variant": "U39A A118G", "self-cleavage": 1.28},
      {"variant": "U39A A60G", "self-cleavage": 0.99},
      {"variant": "U38C U122C", "self-cleavage": 0.8},
      {"variant": "U38C C45U", "self-cleavage": 1.23},
      {"variant": "U39C A47G", "self-cleavage": 1.25},
      {"variant": "U39C A47C", "self-cleavage": 1.63},
      {"variant": "U39A A47U", "self-cleavage": 0.73},
      {"variant": "U38C A110G", "self-cleavage": 0.17},
      {"variant": "U39A G104A", "self-cleavage": 0.03},
      {"variant": "U39A A126G", "self-cleavage": 1.59},
      {"variant": "U39A A126C", "self-cleavage": 0.87},
      {"variant": "U39C A92G", "self-cleavage": 1.3},
      {"variant": "U39C A92U", "self-cleavage": 1.99},
      {"variant": "U39A U57C", "self-cleavage": 0.73},
      {"variant": "U38C G99C", "self-cleavage": 0.34},
      {"variant": "U39A C109U", "self-cleavage": 0.37},
      {"variant": "U39A A117G", "self-cleavage": 2.24},
      {"variant": "U38C U132A", "self-cleavage": 1.77},
      {"variant": "U39C A52G", "self-cleavage": 1.76},
      {"variant": "U39C A52C", "self-cleavage": 1.78},
      {"variant": "U39A U127C", "self-cleavage": 0.28},
      {"variant": "U39A A78G", "self-cleavage": 0.35},
      {"variant": "U39A A78U", "self-cleavage": 0.44},
      {"variant": "U39A A78C", "self-cleavage": 0.23},
      {"variant": "U38C G80U", "self-cleavage": 0.06},
      {"variant": "U38C G137A", "self-cleavage": 0.9},
      {"variant": "U39A A82U", "self-cleavage": 0.28},
      {"variant": "U39A A82G", "self-cleavage": 0.44},
      {"variant": "U38C C113U", "self-cleavage": 0.14},
      {"variant": "U39A A51U", "self-cleavage": 1.74},
      {"variant": "U38C A126G", "self-cleavage": 1.56},
      {"variant": "U38G U108C", "self-cleavage": 0.03},
      {"variant": "U39C A64U", "self-cleavage": 1.77},
      {"variant": "U39C A64C", "self-cleavage": 1.88},
      {"variant": "U39C A91G", "self-cleavage": 1.4},
      {"variant": "U38C U87C", "self-cleavage": 1.26},
      {"variant": "U38C U87A", "self-cleavage": 1.6},
      {"variant": "U38C U72C", "self-cleavage": 0.27},
      {"variant": "U38C U72A", "self-cleavage": 0.11},
      {"variant": "U38C U72G", "self-cleavage": 0.27},
      {"variant": "U38C G44A", "self-cleavage": 1.16},
      {"variant": "U38C G41A", "self-cleavage": 1.95},
      {"variant": "U38C A114G", "self-cleavage": 0.75},
      {"variant": "U39C A140G", "self-cleavage": 1.57},
      {"variant": "U39C A140U", "self-cleavage": 1.62},
      {"variant": "U38G A62G", "self-cleavage": 1.59},
      {"variant": "U38G A62U", "self-cleavage": 1.41},
      {"variant": "U39C A134U", "self-cleavage": 1.21},
      {"variant": "U38C G119U", "self-cleavage": 1.69},
      {"variant": "U39C C61U", "self-cleavage": 2.41},
      {"variant": "U39C A95G", "self-cleavage": 1.53},
      {"variant": "U39C A118G", "self-cleavage": 1.71},
      {"variant": "U39A", "self-cleavage": 1.35},
      {"variant": "U39C", "self-cleavage": 1.34},
      {"variant": "U38G A47G", "self-cleavage": 1.78},
      {"variant": "U38C U130C", "self-cleavage": 1.5},
      {"variant": "U39C A59U", "self-cleavage": 1.98},
      {"variant": "U39C A59G", "self-cleavage": 1.51},
      {"variant": "U39A A52G", "self-cleavage": 1.21},
      {"variant": "U38C U108C", "self-cleavage": 0.02},
      {"variant": "U38C C121U", "self-cleavage": 1.86},
      {"variant": "U38C G75A", "self-cleavage": 0.13},
      {"variant": "U38C G75C", "self-cleavage": 0.14},
      {"variant": "U39A A66U", "self-cleavage": 1.74},
      {"variant": "U39C A89C", "self-cleavage": 1.38},
      {"variant": "U39C A89G", "self-cleavage": 1.73}
    ]}
  ]
}
